From patent US10444224B2, “Method for RNA detection and quantification” (Cornell University, priority 2011, dated 2019)
Entries after “also recorded” stand apart in the source; their conditions may differ.

How the values were obtained:
[1] = system: endogenous SAM levels in living E. coli cells; experiment: Live cell imaging of SAM accumulation with the SAM sensor; type: cell-based; details: 50 μg/ml methionine plus inhibitor (25 μM adenosine periodate or 2.5 μM MT-DADMe-ImmA)
Method: Expression of the SAM aptamer and intracellular imaging was performed as described above for the ADP sensor: BL21-A Star E. coli cells (Invitrogen) were transformed with 40 ng of plasmid DNA expressing the tRNA-sensor chimeras in pET28c under the control of a T7 promoter. Cells were plated, grown overnight and single colonies were picked for inoculation in LB-Kan. At OD600=0.4, 1 mM of IPTG was added to the culture and shaking was continued at 37° C. for more 2 hours. 100 μL of culture was then removed, spun down to pellet the culture, and resuspended in 2 mL of pH 6.0 M9 minimal media. A 200 μl aliquot of resuspended culture was then plated on PLL-coated 24-well glass-bottom dishes (MatTek) and incubated for 45 minutes at 37° C. Adherent cells were washed twice and then incubated with 200 μM DFHBI in pH 6.0 M9 minimal media for 2 hours at 37° C. Cells were then treated with methionine alone or methionine with inhibitors by adding 2 μl of a 100× stock of the compound to a final concentration of 50 μg/ml for L-methionine, 25 μM for adenosine periodate, and 2.5 μM for MT-DADMe-ImmA. Live fluorescence images were taken with a CoolSnap HQ2 CCD camera through a 60× oil objective mounted on a Nikon TE2000 microscope and analyzed with the NIS-Elements software. The filter set used was a sputter coated filter cube with excitation filter 470/40, dichroic mirror 495 (long pass) and emission filter 525/50 (Chroma Technology).
Cells transformed with SAM sensors were grown overnight in LB-Kan. Cultures were then diluted to OD600=0.1 in 200 mL LB-Kan and grown to OD600=0.4. Cells were then induced for 2 hours with 1 mM IPTG at 37° C. with constant shaking. The entire culture was centrifuged for 5 min at 1,000×g, pellets were resuspended and washed once with M9 media and then resuspended in […] of M9 media containing 200 μM DFHBI and divided into two samples. Methionine (50 μg/ml) or vehicle was then added to either sample and cultures were incubated between 32-37° C. 25 ml aliquots were removed from methionine- and vehicle-treated sample at each time point, centrifuged for 5 min at 1,000×g, and flash frozen in liquid nitrogen. Cells were thawed on ice and lysed by resuspending the pellet in 300 μl of cold 4% perchloric acid. Insoluble material was then pelleted by spinning at 1,000×g for 5 min and the supernatant was transferred to a dialysis spin column with a 10,000 molecular weight cut off (Amicon) and spun at 10,000×g for 10 min at 4° C. A portion of the flow through (50 μl) was then injected on a Zorbax C8 column (Agilent) on an Agilent 1100 HPLC. Samples were loaded and eluted for 15 min with an aqueous buffer containing 3.6% acetonitrile, 40 mM ammonium phosphate, and 5 mM sodium 1-heptanesulfonate which was brought to pH 5.0 with hydrochloric acid. After each sample was eluted, the column was washed with a gradient of 3.6-25% acetonitrile for 30 min prior to the next samples being injected. SAM standards were used to calibrate SAM levels measured using this assay.
Population analysis was carried out using NIS-Elements software. Individual cells in a captured field were manually traced as Region of Interests (ROIs) and tracked through the different time points of image capture. Fluorescence intensity was then calculated by dividing the total fluorescence by the area for each ROI, which gives the mean intensity per unit area. Fold increase in fluorescence over time is calculated as the ratio of mean intensity at a desired time point and at time zero. Values in fold increase in fluorescence over time are plotted as frequency distributions or further used in statistical analyses.

[2] = Emission and excitation of aptamer-DFHO complexes; type: physicochemical; details: aptamer with DFHO
[3] = Relative fluorescence of Spinach derivatives compared to Spinach; type: biochemical; details: same concentration of DFHBI in all samples
From the text: Further modifications to Spinach were made in the same manner as described in Example 3, supra. These included modifications to the central loop, the stem formed between 5′ and 3′ ends, as well as stem-loops 1, 2, and 3. FIG. 17 illustrates the RNA sequences and secondary structures of Spinach (SEQ ID NO: 10), and five derivatives thereof, which are designated Spinach-2 (SEQ ID NO: 12), Spinach-4 (SEQ ID NO: 13), Spinach-6 (SEQ ID NO: 14), Spinach-7 (SEQ ID NO: 15), and Spinach-13 (SEQ ID NO: 11). RNA structure is shown as predicted by Mfold web-based software (Zuker, “Mfold Web Server for Nucleic Acid Folding and Hybridization Prediction,” Nucl. Acids Res. 31(13): 3406-3415 (2003), which is hereby incorporated by reference in its entirety). Substitutions present in the derivatives, relative to Spinach, are shown with a box formed around the base.
FIG. 18 is a graph illustrating the relative fluorescence of the Spinach derivatives compared to Spinach. In all samples shown, the same concentration of DFHBI, the Spinach-binding fluorophore, was included. […] In contrast, modifications to the 5′ and 3′ stem formation, the central loop, and stem-loop 2 were either tolerated or led to much improved fluorescence.

[4] = Spinach-based RNA sensor fluorescence in response to GTP; type: biochemical
Method: Dose-response curves for each sensor in response to the target metabolite were determined by measuring the increase in fluorescence as a function of increasing target concentration in the presence of a fixed concentration of RNA sensor (10-50 nM) and a fixed concentration of fluorophore (10 μM). Curves were determined using a nonlinear regression analysis in Prism software and matched by least squares fitting to a standard dose-response model for 1:1 complexation.
The optimal sensors were chosen based on their low fluorescence in the absence of metabolite and the relative increase in fluorescence upon binding to the metabolite.

[5] = Emission and excitation of aptamer-MFHO complexes; type: physicochemical; details: aptamer with MFHO
[6] = Emission and excitation of aptamer-DFAME complexes; type: physicochemical; details: aptamer with DFAME
[7] = 0.1 μM RNA, 10 μM DFHBI, 1 mM competing molecule

CSC[C@H]1CN(Cc2c[nH]c3c(N)ncnc23)C[C@@H]1O [MT-DADMe-ImmA, MT-DADMe-Immucillin-A]
effect on average SAM levels / accumulation versus vehicle [1]: large decrease in the average accumulation of SAM
effect on inter-cell variability in SAM levels versus vehicle [1]: retained considerable variability in total SAM levels
effect on average SAM levels / accumulation versus vehicle ([1]; listed as Mt-DADMe-ImmA): substantial reduction in average SAM accumulation levels; also recorded: much greater reduction in average SAM accumulation levels
effect on inter-cell variability in SAM levels versus vehicle ([1]; listed as Mt-DADMe-ImmA): higher variability in SAM levels; also recorded: increased the variability in SAM levels

B1: SEQ ID NO: 51: RNA aptamer listed for fluorophore DFHO (nucleic acid)
chain: GGGAGACGCAACUGAAUGAAGUUGGCCCAUGAUAGAAAGCAGGGUGCUGCUUCGGCAGUUGUCGGAGGGUGGGGGGAUUGACUAUCCGUAACUAGUCGCGUCAC
modifications: listed as RNA, chemistry not given here
Em [2]: Em = 550 nm
Ex [2]: Ex = 480 nm

B2: SEQ ID NO: 52: RNA aptamer listed for fluorophore DFHO (nucleic acid)
chain: GGGCGACUCACUAUAGGGAGACGCAACUGAAUGAAGCGAAGAAGGAGGUCUGAGGAGGUCACUGCUUCGGCAGUGGGGCGUUUUCCCUGGGGGUGUUGAUCCGUAACUAGUCGCGUCAC
modifications: listed as RNA, chemistry not given here
Em [2]: Em = 540 nm
Ex [2]: Ex = 490 nm

B3: Spinach-6: derivative of Spinach (nucleic acid)
chain: GACGCGACCGAAUGAAAUGGUGAAGGACGGGUCCAGGUGUGGCUGCUUCGGCAGUGCAGCUUGUUGCGUCGAGUGUGAGCUCGACGUAACUGGUCGCGUC
modifications: listed as RNA, chemistry not given here
relative fluorescence compared to Spinach [3]: greatly reduced fluorescence

B4: GTP sensor: Spinach-based turn-on RNA sensor for GTP (nucleic acid)
chain: GACGCGACUGAAUGAAAUGGUGAAGGACGGGUCCAGCAGAAGAGCACGUAUACGCAAGCUUGUUGAGUAGAGUGUGAGCUCCGUAACUAGUCGCGUC
modifications: listed as RNA, chemistry not given here
increase in fluorescence in the presence of GTP ([4]; 0.1 μM RNA, 10 μM DFHBI, 1 mM GTP, versus no GTP): 15 fold
molecular discrimination: ATP [4, 7]: Only baseline fluorescence
molecular discrimination: GMP [4, 7]: exhibits fluorescence, although to a lesser extent; also recorded: moderate preference for GTP over GMP
molecular discrimination: cGMP and guanosine [4, 7]: minimal fluorescence; also recorded: tenfold less fluorescence
EC50 ([4]; predicted by curve fitting, read-out: half-maximal fluorescence (EC50), GTP): 7.7 mM

B5: Spinach-2: derivative of Spinach (nucleic acid)
chain: GACGCGACCGAAUGAAAUGGUGAAGGACGGGUCCAGGUGUGGCUGCUUCGGCAGUGCAGCUUGUUGAGUAGAGUGUGAGCUCCGUAACUGGUCGCGUC
modifications: listed as RNA, chemistry not given here
relative fluorescence compared to Spinach [3]: comparable fluorescence

B6: SEQ ID NO: 54: RNA aptamer listed for fluorophore DFHO (nucleic acid)
chain: GGGAGACGCAACUGAAUGAAGCGAGGAAGGAGGUCUGAGGAGGUCACUGCUUCGACAGUGGGGCGUUUUCCCUGGGGGUGUUGAUCCGUAACUAGUCGCGUCAC
modifications: listed as RNA, chemistry not given here
Em [2]: Em = 545 nm
Ex [2]: Ex = 500 nm

B7: SEQ ID NO: 55: RNA aptamer listed for fluorophore MFHO (nucleic acid)
chain: GGGAGACGCAACUGAAUGAAGCGAGGAAGGAGGUCUGAGGAGGUCACUGCUUCGACAGUGGGGCGUUUUCCCUGGGGGUGUUGAUCCGUAACUAGUCGCGUCAC
modifications: listed as RNA, chemistry not given here
Em [5]: Em = 430 nm
Ex [5]: Ex = 580 nm

B8: SEQ ID NO: 56: RNA aptamer listed for fluorophore MFHO (nucleic acid)
chain: GGGAGACGCAACUGAAUGAAUGAGUAUGAUGCACGGUUAAAAUCCACUGCUUCGGCAGGAGUUGCGUUAGGAGGGUCGGGAGUCUCCGUAACUAGUCGCGUCAC
modifications: listed as RNA, chemistry not given here
Em [5]: Em = 570 nm
Ex [5]: Ex = 550 nm

B9: Spinach-7: derivative of Spinach (nucleic acid)
chain: GACGCGACCGAAUGAAAUGGUGAAGGACGGGUCCAGCCGGCUGCUUCGGCAGCCGGCUUGUUGAGUAGAGUGUGAGCUCCGUAACUGGUCGCGUC
modifications: listed as RNA, chemistry not given here
relative fluorescence compared to Spinach [3]: enhanced fluorescence

B10: SEQ ID NO: 53: RNA aptamer listed for fluorophore DFHO (nucleic acid)
chain: GGGAGACGCAACUGAAUGAAAGACCUGACGAGGGUGAAGCGGUUGUCUGCUUCGGCAGCAUUGAAAGGGUGGGGUGUAGGAUGGUCCGUAACUAGUCGCGUCAC
modifications: listed as RNA, chemistry not given here
Em [2]: Em = 560 nm
Ex [2]: Ex = 520 nm

B11: SEQ ID NO: 57: RNA aptamer listed for fluorophore DFAME (nucleic acid)
chain: GGGAGACGCAACUGAAUGAAAGACCUGACGAGGGUGAAGCGGUUGUCUGCUUCGGCAGCAUUGAAAGGGUGGGGUGUAGGAUGGUCCGUAACUAGUCGCGUCAC
modifications: listed as RNA, further chemistry not given here
Em [6]: Em = 570 nm
Ex [6]: Ex = 620 nm

B12: Spinach-4: derivative of Spinach (nucleic acid)
chain: GACGCGACCGAAUGAAAUGGUGAAGGACGGGUCCAGCUGCGGCUGCUUCGGCAGCCGCAGCUUGUUGAGUAGAGUGUGAGCUCCGUAACUGGUCGCGUC
modifications: listed as RNA, chemistry not given here
relative fluorescence compared to Spinach [3]: enhanced fluorescence

B13: Spinach-13: derivative of Spinach (nucleic acid)
chain: GACGCGACCUAUGAAAUGGUGAAGGGACGGGUCCCAGCGGCUGCUUCGGCAGCCGCUGUUGAGUAGAGUGUGAGCUCCGUAACUGGUCGCGUC
modifications: listed as RNA, chemistry not given here
relative fluorescence compared to Spinach [3]: greatly reduced fluorescence

B14: SEQ ID NO: 58: RNA aptamer listed for fluorophore DFAME (nucleic acid)
chain: GGGAGACGCAACUGAAUGAAGCCUCCGUGCGACAUCAUGCGCGCGACUGCUUCGGCAGAGGUGGGUGGUGUGGAGGAGUAUCUGUCCGUAACUAGUCGCGUCAC
modifications: listed as RNA, further chemistry not given here
Em [6]: Em = 610 nm
Ex [6]: Ex = 510 nm
